{"source": "patent US20220056141A1", "about": "(DEUTSCHES KREBSFORSCHUNGSZENTRUM STIFTUNG DES OFFENTLICHEN …, published 2022)", "binders": {"B1": {"name": "bispecific FLT3xCD3 IgGsc antibody V6-V9 (bispecific antibody)", "heavy": "QVQLQQPGAELVKPGASLKLSCKSSGYTFTSYWMHWVRQRPGHGLEWIGEIDPSDSYKDYNQKFKDKATLTVDRSSNTAYMHLSSLTSDDSAVYYCARAITTTPFDFWGQGTTLTVSSASTKGPSVFPLAPSSKSTSGGTAALGCLVKDYFPEPVTVSWNSGALTSGVHTFPAVLQSSGLYSLSSVVTVPSSSLGTQTYICNVNHKPSNTKVDKKVEPKSCDKTHTCPPCPAPPVAGPSVFLFPPKPKDTLMISRTPEVTCVVVGVSHEDPEVKFNWYVDGVEVHNAKTKPREEQYNSTYRVVSVLTVLHQDWLNGKEYKCKVSNKQLPSPIEKTISKAKGQPREPQVYTLPPSRDELTKNQVSLTCLVKGFYPSDIAVEWESNGQPENNYKTTPPVLDSDGSFFLYSKLTVDKSRWQQGNVFSCSVMHEALHNHYTQKSLSLSPGKSGEVQLVESGGGLVQPGGSLRLSCAASGYSFTGYTMNWVRQAPGKGLEWVALINPYKGVSTYNQKFKDRFTISVDKSKNTAYLQMNSLRAEDTAVYYCARSGYYGDSDWYFDVWGQGTLVTVSSGGGGSGGGGSGGGGSDIQMTQSPSSLSASVGDRVTITCRASQDIRNYLNWYQQKPGKAPKLLIYYTSRLESGVPSRFSGSGSGTDYTLTISSLQPEDFATYYCQQGNTLPWTFGQGTKVEIK", "light": "DIVLTQSPATLSVTPGDSVSLSCRASQSISNNLHWYQQKSHESPRLLIKYASQSISGIPSRFSGSGSGTDFTLSINSVETEDFGVYFCQQSNTWPYTFGGGTKLEIKRTVAAPSVFIFPPSDEQLKSGTASVVCLLNNFYPREAKVQWKVDNALQSGNSQESVTEQDSKDSTYSLSSTLTLSKADYEKHKVYACEVTHQGLSSPVTKSFNRGEC", "notes": "Fc-attenuated IgGsc format; also called CC-2 V9"}, "B2": {"name": "mouse FLT3 (4G8) x CD3 (humanized UCHT1) bispecific IgGsc antibody V6-V6 (bispecific antibody)", "heavy": "QVQLQQPGAELVKPGASLKLSCKSSGYTFTSYWMHWVRQRPGHGLEWIGEIDPSDSYKDYNQKFKDKATLTVDRSSNTAYMHLSSLTSDDSAVYYCARAITTTPFDFWGQGTTLTVSSASTKGPSVFPLAPSSKSTSGGTAALGCLVKDYFPEPVTVSWNSGALTSGVHTFPAVLQSSGLYSLSSVVTVPSSSLGTQTYICNVNHKPSNTKVDKKVEPKSCDKTHTCPPCPAPPVAGPSVFLFPPKPKDTLMISRTPEVTCVVVGVSHEDPEVKFNWYVDGVEVHNAKTKPREEQYNSTYRVVSVLTVLHQDWLNGKEYKCKVSNKQLPSPIEKTISKAKGQPREPQVYTLPPSRDELTKNQVSLTCLVKGFYPSDIAVEWESNGQPENNYKTTPPVLDSDGSFFLYSKLTVDKSRWQQGNVFSCSVMHEALHNHYTQKSLSLSPGKSGDIQMTQSPSSLSASVGDRVTITCRASQDIRNYLNWYQQKPGKAPKLLIYYTSRLESGVPSRFSGSGSGTDYTLTISSLQPEDFATYYCQQGNTLPWTFGQGTKVEIKGGGGSGGGGSGGGGSEVQLVESGGGLVQPGGSLRLSCAASGYSFTGYTMNWVRQAPGKGLEWVALINPYKGVSTYNQKFKDRFTISVDKSKNTAYLQMNSLRAEDTAVYYCARSGYYGDSDWYFDVWGQGTLVTVSS", "light": "B1 light", "notes": "also called CC-2; parental 4G8 x UCHT1"}}, "key": {"[1]": {"target": "T1, CD3 on Jurkat cells (human, UniProt P07766 23-207)", "T1 construct": "whole, on cells; also called Jurkat (CD3+); human cluster of differentiation 3 (CD3) antigen", "T1 sequence (P07766 23-207)": "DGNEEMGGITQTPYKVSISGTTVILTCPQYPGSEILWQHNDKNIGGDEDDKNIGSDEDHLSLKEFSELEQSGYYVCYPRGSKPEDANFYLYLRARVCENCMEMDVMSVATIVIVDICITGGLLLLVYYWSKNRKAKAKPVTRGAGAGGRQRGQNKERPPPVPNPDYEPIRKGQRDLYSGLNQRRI", "assay": "flow cytometry (value under the bar; by the legend the EC50 of the binding to Jurkat cells of FIG. 6)", "procedure": "(§1) In addition, antibody binding affinity was also tested using binding of the antibody to its target(s) as expressed on cells. Analyzed is the binding of CC-2 variants to Nalm16 cells expressing FLT3 (FIG. 4) or Jurkat cells expressing CD3 (FIG. 6). Variants V1 to V9 (with V6 being V6-V6) were produced after transient transfection of CHO cells using the insert sequences listed above. The antibodies were purified by protein A affinity- and size exclusion-chromatography. […] To measure antibody binding to FLT3 and CD3 NALM16 (FLT3+) and Jurkat (CD3+) cells were incubated with the respective variants for 30 min, washed, stained with a goat anti human Fcγ-specific and PE-conjugated secondary antibody (Jackson Immuno Research), washed again and analyzed by flow cytometry (FACSCalibur, BD Biosciences)."}, "[2]": {"target": "T1, CD3 on Jurkat cells", "assay": "flow cytometry on Jurkat cells (CD3+), 30 min incubation, PE-conjugated goat anti-human Fc-gamma secondary antibody", "procedure": "as §1"}}}
{"binder": "B1", "values": [{"measurement": "EC50", "setting": "[1]", "value": 4.1, "unit": "nM"}, {"measurement": "EC50 (read off the curve)", "setting": "[2]", "value": "~5", "unit": "nM"}]}
{"binder": "B2", "values": [{"measurement": "EC50", "setting": "[1]", "value": 10.8, "unit": "nM"}, {"measurement": "EC50 (read off the curve)", "setting": "[2]", "value": "~10", "unit": "nM"}]}
